According to PMC12609076:

Assays:
[1] = biological target: Bradyrhizobium japonicum SemiSWEET (Bradyrhizobium japonicum); experiment: not stated; BjSemiSWEET in detergent (fig. S8A); method not given
[2] = biological target: Bradyrhizobium japonicum SemiSWEET (Bradyrhizobium japonicum); experiment: not stated; BjSemiSWEET in liposomes (fig. S8B); method not given

Substance: Bradyrhizobium japonicum SemiSWEET (natural protein)
- stoichiometry N [1]: 2
- stoichiometry N [2]: 2
